Patent publication US20140228546A1 (Ablynx, published 2014)

What was measured:
[1] = target: T1, c-MET receptor on A549 cells (UniProt P08581 25-1390, limits assumed); assay: cell-based or functional assay
[2] = target: T2, c-MET/Fc (UniProt P08581 25-932); assay: HGF/c-MET competition AlphaScreen; competitor: 100 pM biotinylated hHGF
T2 construct: also called c-MET receptor; not shown: Fc part, captured by anti-human Fc acceptor beads

[3] = target: T2, c-MET/Fc; assay: as above; remark: listed apart in the source
Protocol: To this mixture the anti-human Fc conjugated acceptor beads and c-MET/Fc (100 μM final concentration) were added and incubated for 2 hours at RT. Next, streptavidin donor beads were added and the mixture was incubated for 1 additional hour. Fluorescence was measured by reading plates on the EnVision Multilabel Plate Reader using an excitation wavelength of 680 nm and an emission wavelength of 520 nm.

[4] = target: T3, cynomolgus serum albumin (cynomolgus, UniProt A2V9Z4 25-608); assay: SPR, Biacore T100, albumin immobilized on CM5, 25 C, 1:1 model
T3 construct: also called Cyno SA
Protocol: (§1) HBS-EP+ buffer (0.01M HEPES buffer containing 0.15M NaCl, 3 mM EDTA and 0.05% Surfactant p20, pH7.4) was used as the running buffer and experiments were performed at 25° C. Serum albumin was chemically coupled on a Series S sensorchip chip CM5 with carboxymethylated dextran surface by a manual immobilization run at a flow rate of 5 μl/min. […] After immobilization, surfaces were deactivated with a 7 min injection of 1M ethanolamine pH8.5. A blank reference surface (flowcell 1) was activated and deactivated as described above. […] Between different samples, the surfaces were regenerated with regeneration buffer 10 mM glycine-HCl pH1.5, 100 s at 45 μl/min. Data were double referenced by subtraction of the curves on the reference channel and of a blank running buffer injection curve. Processed curves were evaluated by fitting a 1:1 binding model onto the binding curves in the Biacore T100 Evaluation software.

[5] = target: T4, human serum albumin (human, UniProt P02768 25-609); assay: as above
T4 construct: also called Human SA; HSA
Protocol: as §1

[6] = target: T5, mouse serum albumin (mouse, UniProt P07724 25-608); assay: as above
T5 construct: also called Murine SA
Protocol: as §1

[7] = target: T1, c-MET receptor on A549 cells; assay: cell-based or functional assay; remark: listed apart in the source
[8] = target: T3, cynomolgus serum albumin; assay: method not stated (Table 6 comparison)
[9] = target: T4, human serum albumin; assay: method not stated (Table 6 comparison)

T3 sequence (A2V9Z4 25-608 limits assumed): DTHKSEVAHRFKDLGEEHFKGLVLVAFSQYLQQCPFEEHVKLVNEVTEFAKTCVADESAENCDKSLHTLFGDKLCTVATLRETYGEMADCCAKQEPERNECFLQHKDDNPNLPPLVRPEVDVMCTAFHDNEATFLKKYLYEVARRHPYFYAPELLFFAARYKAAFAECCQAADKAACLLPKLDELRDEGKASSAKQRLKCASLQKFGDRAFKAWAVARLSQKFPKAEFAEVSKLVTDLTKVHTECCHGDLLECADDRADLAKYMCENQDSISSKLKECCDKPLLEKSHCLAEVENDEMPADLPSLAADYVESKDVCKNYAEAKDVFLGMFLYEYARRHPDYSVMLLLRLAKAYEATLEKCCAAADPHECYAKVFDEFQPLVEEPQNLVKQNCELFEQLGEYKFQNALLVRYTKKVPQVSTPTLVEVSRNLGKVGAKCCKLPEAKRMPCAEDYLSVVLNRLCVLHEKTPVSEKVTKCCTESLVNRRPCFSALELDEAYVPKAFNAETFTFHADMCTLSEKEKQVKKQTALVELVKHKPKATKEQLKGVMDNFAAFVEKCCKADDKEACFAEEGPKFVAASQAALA
T1 sequence (P08581 25-1390 limits assumed): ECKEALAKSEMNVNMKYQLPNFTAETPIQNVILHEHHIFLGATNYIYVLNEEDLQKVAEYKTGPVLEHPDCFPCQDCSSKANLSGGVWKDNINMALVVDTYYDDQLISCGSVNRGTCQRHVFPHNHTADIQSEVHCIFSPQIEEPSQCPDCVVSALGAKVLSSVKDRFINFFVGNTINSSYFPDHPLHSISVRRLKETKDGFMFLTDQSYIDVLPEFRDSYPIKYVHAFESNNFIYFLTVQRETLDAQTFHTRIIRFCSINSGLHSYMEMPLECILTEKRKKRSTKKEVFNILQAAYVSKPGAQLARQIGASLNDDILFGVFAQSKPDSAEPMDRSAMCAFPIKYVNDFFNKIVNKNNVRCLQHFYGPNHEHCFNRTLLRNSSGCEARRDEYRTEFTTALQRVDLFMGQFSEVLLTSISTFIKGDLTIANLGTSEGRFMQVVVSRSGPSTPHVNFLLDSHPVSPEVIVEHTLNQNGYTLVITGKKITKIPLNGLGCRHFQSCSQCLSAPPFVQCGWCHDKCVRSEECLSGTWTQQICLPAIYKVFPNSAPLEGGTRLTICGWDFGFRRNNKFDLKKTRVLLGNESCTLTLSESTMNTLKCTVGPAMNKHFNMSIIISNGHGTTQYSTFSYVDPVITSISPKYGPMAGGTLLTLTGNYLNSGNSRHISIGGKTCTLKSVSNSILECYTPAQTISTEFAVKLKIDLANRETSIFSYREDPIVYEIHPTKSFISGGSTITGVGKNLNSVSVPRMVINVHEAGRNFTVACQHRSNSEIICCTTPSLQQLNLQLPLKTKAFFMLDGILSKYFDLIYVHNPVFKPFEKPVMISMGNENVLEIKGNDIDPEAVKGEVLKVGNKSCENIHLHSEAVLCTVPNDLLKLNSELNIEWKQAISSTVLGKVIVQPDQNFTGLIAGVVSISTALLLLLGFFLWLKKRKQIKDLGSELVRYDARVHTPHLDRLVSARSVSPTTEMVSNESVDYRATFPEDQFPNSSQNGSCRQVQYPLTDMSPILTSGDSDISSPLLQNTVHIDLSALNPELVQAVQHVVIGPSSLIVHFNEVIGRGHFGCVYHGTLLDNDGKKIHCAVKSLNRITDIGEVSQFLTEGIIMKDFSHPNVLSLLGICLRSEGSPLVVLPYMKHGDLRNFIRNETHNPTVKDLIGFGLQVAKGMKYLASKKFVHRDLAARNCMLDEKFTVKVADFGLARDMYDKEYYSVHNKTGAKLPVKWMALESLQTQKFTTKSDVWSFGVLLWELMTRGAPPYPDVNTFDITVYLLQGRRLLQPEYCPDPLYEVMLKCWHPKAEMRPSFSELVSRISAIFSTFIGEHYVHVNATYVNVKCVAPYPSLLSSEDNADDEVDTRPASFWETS
T4 sequence (P02768 25-609 limits assumed): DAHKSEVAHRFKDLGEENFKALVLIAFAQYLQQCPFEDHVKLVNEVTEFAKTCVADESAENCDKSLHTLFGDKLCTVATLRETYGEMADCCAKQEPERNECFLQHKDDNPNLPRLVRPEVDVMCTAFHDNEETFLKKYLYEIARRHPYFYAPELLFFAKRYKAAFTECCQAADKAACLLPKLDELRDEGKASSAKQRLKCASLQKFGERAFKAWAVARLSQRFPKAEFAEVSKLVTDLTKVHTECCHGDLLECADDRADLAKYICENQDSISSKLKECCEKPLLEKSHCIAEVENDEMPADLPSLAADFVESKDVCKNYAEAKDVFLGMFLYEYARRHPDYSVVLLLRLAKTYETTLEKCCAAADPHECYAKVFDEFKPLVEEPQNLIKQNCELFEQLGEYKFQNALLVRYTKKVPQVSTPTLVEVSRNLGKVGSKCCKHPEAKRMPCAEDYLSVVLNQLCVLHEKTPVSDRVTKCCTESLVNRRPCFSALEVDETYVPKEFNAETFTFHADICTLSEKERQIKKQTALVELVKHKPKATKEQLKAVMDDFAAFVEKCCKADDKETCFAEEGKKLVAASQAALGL
T2 sequence (P08581 25-932 limits assumed): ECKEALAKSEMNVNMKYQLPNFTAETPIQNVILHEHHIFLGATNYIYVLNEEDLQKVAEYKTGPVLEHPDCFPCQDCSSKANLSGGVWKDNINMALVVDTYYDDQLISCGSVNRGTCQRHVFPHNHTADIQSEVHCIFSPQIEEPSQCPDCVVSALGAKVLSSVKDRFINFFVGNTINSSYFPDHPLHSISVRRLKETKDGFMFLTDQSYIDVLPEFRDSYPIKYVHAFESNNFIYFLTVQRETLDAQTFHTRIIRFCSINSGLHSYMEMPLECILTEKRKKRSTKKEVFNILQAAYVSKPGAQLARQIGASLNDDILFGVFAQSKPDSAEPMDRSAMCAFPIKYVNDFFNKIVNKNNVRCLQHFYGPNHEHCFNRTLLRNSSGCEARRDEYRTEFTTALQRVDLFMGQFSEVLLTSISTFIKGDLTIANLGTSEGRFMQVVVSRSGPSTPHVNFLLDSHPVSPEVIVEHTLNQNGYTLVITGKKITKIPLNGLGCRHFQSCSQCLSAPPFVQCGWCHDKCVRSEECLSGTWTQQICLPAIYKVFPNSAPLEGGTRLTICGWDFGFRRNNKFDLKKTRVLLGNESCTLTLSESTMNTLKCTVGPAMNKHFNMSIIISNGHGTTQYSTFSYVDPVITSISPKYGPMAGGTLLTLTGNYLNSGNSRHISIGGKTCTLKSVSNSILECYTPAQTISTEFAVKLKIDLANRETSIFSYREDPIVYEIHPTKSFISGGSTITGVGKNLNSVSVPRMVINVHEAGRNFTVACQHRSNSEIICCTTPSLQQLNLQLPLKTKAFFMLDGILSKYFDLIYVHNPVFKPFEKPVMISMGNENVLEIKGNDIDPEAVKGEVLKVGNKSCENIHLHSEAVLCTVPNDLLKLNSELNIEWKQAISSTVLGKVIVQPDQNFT

Binder | fold improved potency vs 5D5 Fab v2, HGF-dependent c-MET phosphorylation in A549 cells [1] [fold] | IC50 [2] [nM] | fold improved potency vs 5D5 Fab v2 [3] [fold] | Kd [4] [nM] | koff [4] [s⁻¹] | kon [4] [M⁻¹ s⁻¹] | Kd [5] [nM] | koff [5] [s⁻¹] | kon [5] [M⁻¹ s⁻¹] | Kd [6] [nM] | koff [6] [s⁻¹] | kon [6] [M⁻¹ s⁻¹] | IC50, HGF-dependent c-MET phosphorylation in A549 cells (MSD), +HSA [7] [nM] | IC50, HGF-dependent c-MET phosphorylation in A549 cells (MSD), -HSA [7] [nM] | Kd [8] [nM] | Kd [9] [nM]
A007901219 (A00790105-9GS-Alb23) (bispecific antibody, Single polypeptide chain; also called A007901219 (Alb23)) DVQLVESGGGLVQPGGSLRLSCAASGFILDYYAIGWFRQAPGKEREGVLCIDASDDITYYADSVKGRFTISRDNSKNTVYLQMNSLRPEDTAVYYCATPIGLSSSCLLEYDYDYWGQGTLVTVSSGGGGSGGGSEVQLLESGGGLVQPGGSLRLSCAASGFTFRSFGMSWVRQAPGKGPEWVSSISGSGSDTLYADSVKGRFTISRDNSKNTLYLQMNSLRPEDTAVYYCTIGGSLSRSSQGTLVTVSS | ~2 | 0.066 | > 5 | 27 | 0.0032 | 120000 | 24 | 0.0033 | 130000 | 300 | 0.05 | 170000 | 4.2 | 5.41 | – | –
Alb-23 (VHH, Monovalent anti-serum albumin Nanobody, a humanized version of Alb-1) VHH: EVQLLESGGGLVQPGGSLRLSCAASGFTFRSFGMSWVRQAPGKGPEWVSSISGSGSDTLYADSVKGRFTISRDNSKNTLYLQMNSLRPEDTAVYYCTIGGSLSRSSQGTLVTVSS | – | – | – | 2.7 | – | – | 2.6 | – | – | – | – | – | – | – | 3 | 2.7
